Data reported in PMC10454665, “Structural Analysis of Plasmodium falciparum Hexokinase Provides Novel Information about Catalysis Due to a Plasmodium-Specific Insertion” (International Journal of Molecular Sciences, 2023).

Target: the molecule itself
Test: SEC; HiLoad 16/60 Superdex 200 on an AKTA pure system after Talon purification; PfHK eluted at ~65 mL; mass estimated from a calibration curve

B1: Plasmodium falciparum hexokinase (enzyme)
chain: MSEYDIAKNDVTYTKLDTIECDIPINEELSWRINKFVNQLRISYSTLEEFVDNFVYELKKGLEAHRKHPNLWIPHECSFKMLDSCIANIPTGQEKGTYYAIDFGGTNFRAVRASLDGKGKIKRDQETYSLKFTGSYSHEKGLLDKHATASQLFDHFAERIKYIMGEFNDLDNKEVKSVGFTFSFPCTSPSINCSILIDWTKGFETGRATNDPVEGRDVCKLMNDAFVRAAIPAKVCCVLNDAVGTLMSCAYQKGRGTPPCYIGIILGTGSNGCYYEPEWKKYKYAGKIINIEFGNFDKDLPTSPIDLVMDWYSANRSRQLFEKMISGAYLGEIVRRFMVNVLQSACSKKMWISDSFNSESGSVVLNDTSKNFEDSRKVAKAAWDMDFTDEQIYVLRKICEAVYNRSAALARGTIAAIAKRIKIIEHSKFTCGVDGSLFVKNAWYCKRLQEHLKVILADKAENLIIIPADDGSGKGAAITAAVIALNADIPQLP
notes: Hexokinase of Plasmodium falciparum, PlasmoDB PF3D7_0624000, gene ordered codon-optimised for E. coli and cloned into pET30a-c(+); the model holds I25-N486 (subunit A) and I23-I489 (subunit B); The PlasmoDB id is that of strain 3D7; also called PfHK; P. falciparum hexokinase
**Q.** With B1 as the protein, how does the “stoichiometry N” value read?
**A.** 4
